Holding throughout (assay): two-hybrid library CCNG1;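 also: natural log of median RNA to DNA barcode read ratio; higher means stronger binding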
One experiment deals with T1, 4H3462-bA.
T1 chain: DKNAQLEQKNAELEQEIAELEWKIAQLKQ

A further experiment concerns the target T2, 4H591-bA.
T2 chain: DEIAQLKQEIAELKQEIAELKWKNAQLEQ

A further experiment concerns the target T3, 4H906-bA.
T3 chain: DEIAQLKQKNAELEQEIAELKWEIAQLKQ

A further experiment addresses T4, 4H3628-bA.
T4 chain: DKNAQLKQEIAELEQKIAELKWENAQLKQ

Another experiment deals with T5, 4H626-bA.
T5 chain: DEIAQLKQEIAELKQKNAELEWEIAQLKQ

The next experiment deals with T6, 4H3613-bA.
T6 chain: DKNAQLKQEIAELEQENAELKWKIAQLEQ

A further experiment concerns the target T7, 4H3926-bA.
T7 chain: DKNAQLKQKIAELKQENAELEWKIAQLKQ

Another experiment has as its target T8, 4H3298-bA.
T8 chain: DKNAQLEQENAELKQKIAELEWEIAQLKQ

For another experiment, the target named is T9, 4H3497-bA.
T9 chain: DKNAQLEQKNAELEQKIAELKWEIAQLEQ

In a further experiment the target is T10, 4H40-bN.
T10 chain: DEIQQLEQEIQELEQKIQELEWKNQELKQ

Another experiment deals with T11, 4H2839-bN.
T11 chain: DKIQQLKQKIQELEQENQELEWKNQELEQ

For another experiment, the target named is T12, 4H2717-bN.
T12 chain: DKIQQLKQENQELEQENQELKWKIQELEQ

The target in the next experiment is T13, 4H2915-bN.
T13 chain: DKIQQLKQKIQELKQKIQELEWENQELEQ

For a further experiment, the target named is T14, 4H477-bN.
T14 chain: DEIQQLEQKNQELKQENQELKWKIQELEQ

The target in the next experiment is T15, 4H3277-bN.
T15 chain: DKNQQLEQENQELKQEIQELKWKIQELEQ

Another experiment has as its target T16, 4H741-bN.
T16 chain: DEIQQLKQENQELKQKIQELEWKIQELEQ

Another experiment has as its target T17, 4H3057-bN.
T17 chain: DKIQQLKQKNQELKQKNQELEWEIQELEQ

The target in the next experiment is T18, 4H348-bN.
T18 chain: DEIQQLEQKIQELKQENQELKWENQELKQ

The next experiment deals with T19, 4H319-bN.
T19 chain: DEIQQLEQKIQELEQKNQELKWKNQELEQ

For the next experiment, the target named is T20, 4H492-bN.
T20 chain: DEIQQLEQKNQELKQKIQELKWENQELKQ

For a further experiment, the target named is T21, 4H3277-bA.
T21 chain: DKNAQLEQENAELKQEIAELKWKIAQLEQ

The target in another experiment is T22, 4H40-bA.
T22 chain: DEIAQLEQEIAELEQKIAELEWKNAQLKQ

The target in another experiment is T23, 4H477-bA.
T23 chain: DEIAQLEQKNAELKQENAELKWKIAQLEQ

In the next experiment the target is T24, 4H348-bA.
T24 chain: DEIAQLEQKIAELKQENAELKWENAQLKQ

A further experiment has as its target T25, 4H492-bA.
T25 chain: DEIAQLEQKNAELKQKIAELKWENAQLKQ

The target of another experiment is T26, 4H741-bA.
T26 chain: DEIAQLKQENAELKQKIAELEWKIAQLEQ

As to DKNAQLEQENAELKQKIAELEWEIAQLKQ [4H3298-bA], the interaction score is 0.667 in the experiment with 4H3462-bA; -0.699 with 4H591-bA; -0.638 in the experiment with 4H906-bA; -0.0439 in the experiment with 4H3628-bA; -1.12 with 4H626-bA; 0.681 in the experiment with 4H3613-bA. For the same molecule, the interaction score with 4H3926-bA was -0.651; with 4H3298-bA, 1.02; with 4H3497-bA it was -0.263.

Take DKIQQLKQENQELEQENQELKWKIQELEQ [4H2717-bN]: the interaction score is -1.61 in the experiment with 4H40-bN; -0.648 in the experiment with 4H2839-bN; 0.00236 with 4H2717-bN; -0.6 in the experiment with 4H2915-bN; 1.4 with 4H477-bN; -1.11 with 4H3277-bN. Moreover, the interaction score with 4H741-bN was -2.58; with 4H3057-bN, -1.99; in the experiment with 4H348-bN, -0.289; with 4H319-bN it was -0.684; with 4H492-bN, -0.854.

For DKNAQLEQENAELKQEIAELKWKIAQLEQ [4H3277-bA], the interaction score was -0.372 with 4H3462-bA; 1.38 with 4H3277-bA; -1.08 in the experiment with 4H40-bA; -1.19 with 4H591-bA; -0.838 with 4H906-bA; -0.644 in the experiment with 4H477-bA. Further, the interaction score with 4H348-bA is -0.856; with 4H3628-bA it was -0.955; in the experiment with 4H626-bA it was -0.429; with 4H3613-bA, -0.514; in the experiment with 4H492-bA it was -0.379; in the experiment with 4H741-bA, -1.81. The interaction score is -0.539 with 4H3926-bA, -0.215 with 4H3298-bA and -0.961 in the experiment with 4H3497-bA.
